Source: patent publication US20210324059A1 (AMLO BIOSCIENCES, published 2021)
No end group written: not given here.

Legend:
[1] = molecular target: T1, N1-CD33-His6 (the ectodomain of human CD33 fused to the N1 domain of the g3p filamentous phage M13) (filamentous phage M13; human, UniProt P20138 18-259); assay: quality control ELISA on immobilized control protein
T1 construct: extracellular domain; Control protein of the QC ELISA, used for calculation of background; not shown: N1 domain of g3p of filamentous phage M13
T1 sequence (P20138 18-259, tags left off): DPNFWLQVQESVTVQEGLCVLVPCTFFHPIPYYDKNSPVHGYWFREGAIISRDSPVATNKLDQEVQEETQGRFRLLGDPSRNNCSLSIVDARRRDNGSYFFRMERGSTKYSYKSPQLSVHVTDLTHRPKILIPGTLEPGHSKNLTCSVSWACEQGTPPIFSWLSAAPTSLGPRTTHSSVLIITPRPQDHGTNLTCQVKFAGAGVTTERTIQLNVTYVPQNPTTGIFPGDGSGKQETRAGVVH

[2] = molecular target: T2, Ambra-1 peptide (synthesized peptide to which anti-Ambra-1 antibodies were raised) (human, also: conjugated to carrier protein (BSA), site not given here); assay: quality control ELISA, chimeric human/mouse IgG1 on immobilized Amb1-TRF and Amb1-BSA (Ambra-1 peptide conjugates), signal over background
T2 construct: It was tested in native and denatured form; also called Ambra-1 antigen
T2 peptide: CGGSSRGDAAGPRGEPRNR

human Ambra-1 = molecular target: T3, human Ambra-1 (human, UniProt Q9C0C7 1-1298); assay: automated immunohistochemistry, DAB chromogen
T3 construct: Endogenous protein in formalin fixed paraffin embedded human skin and melanoma sections (immunohistochemistry)
T3 sequence: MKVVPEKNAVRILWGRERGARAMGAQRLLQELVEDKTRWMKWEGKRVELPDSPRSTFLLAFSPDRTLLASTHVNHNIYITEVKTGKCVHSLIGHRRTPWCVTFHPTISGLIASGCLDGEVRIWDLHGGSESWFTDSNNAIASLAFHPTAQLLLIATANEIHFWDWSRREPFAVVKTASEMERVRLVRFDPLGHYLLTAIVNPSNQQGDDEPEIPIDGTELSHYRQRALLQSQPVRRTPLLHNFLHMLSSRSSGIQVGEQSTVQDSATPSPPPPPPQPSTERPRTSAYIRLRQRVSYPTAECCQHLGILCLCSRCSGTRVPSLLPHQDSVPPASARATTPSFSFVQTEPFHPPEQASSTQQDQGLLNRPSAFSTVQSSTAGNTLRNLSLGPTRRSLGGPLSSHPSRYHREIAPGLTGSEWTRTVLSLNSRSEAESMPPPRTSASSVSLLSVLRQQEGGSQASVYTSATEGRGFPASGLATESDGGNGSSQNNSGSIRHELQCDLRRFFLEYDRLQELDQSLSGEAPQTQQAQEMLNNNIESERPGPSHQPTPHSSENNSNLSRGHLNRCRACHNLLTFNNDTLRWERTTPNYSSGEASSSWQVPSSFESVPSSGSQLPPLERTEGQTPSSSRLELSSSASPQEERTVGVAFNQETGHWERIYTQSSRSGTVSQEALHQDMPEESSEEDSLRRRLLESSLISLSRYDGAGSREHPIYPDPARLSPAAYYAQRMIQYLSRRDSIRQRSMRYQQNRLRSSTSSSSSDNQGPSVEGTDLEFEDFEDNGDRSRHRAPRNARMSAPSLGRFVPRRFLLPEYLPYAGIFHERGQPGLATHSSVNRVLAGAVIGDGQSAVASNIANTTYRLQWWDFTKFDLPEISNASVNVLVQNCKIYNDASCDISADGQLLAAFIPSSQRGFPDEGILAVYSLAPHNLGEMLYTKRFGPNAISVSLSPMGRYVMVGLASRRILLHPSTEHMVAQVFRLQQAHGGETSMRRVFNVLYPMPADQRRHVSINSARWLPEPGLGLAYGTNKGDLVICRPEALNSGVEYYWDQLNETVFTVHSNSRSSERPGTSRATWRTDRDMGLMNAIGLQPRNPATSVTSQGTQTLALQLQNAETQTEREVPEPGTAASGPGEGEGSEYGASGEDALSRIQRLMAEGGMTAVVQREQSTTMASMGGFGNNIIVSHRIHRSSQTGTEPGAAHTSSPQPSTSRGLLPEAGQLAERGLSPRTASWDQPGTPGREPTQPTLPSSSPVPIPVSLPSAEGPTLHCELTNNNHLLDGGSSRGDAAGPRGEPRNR

[3] = molecular target: T1, N1-CD33-His6 (the ectodomain of human …); assay: QC ELISA on immobilized control protein
[4] = molecular target: T1, N1-CD33-His6 (the ectodomain of human …); assay: quality control ELISA on immobilized control protein; remark: listed apart in the source

B1: full length chimeric antibody AbD33473 with an IgG1 mouse Fc region (antibody, V domains shown)
VH: EVQLVQSGAEVKKPGESLKISCKGSGYSFSSYWIHWVRQMPGKGLEWMGTIFPSRSYTTYSPSFQGQVTISADKSISTAYLQWSSLKASDTAMYYCARDTPSTALKSPFDYWGQGTLVTVSS
VL: DIVLTQPPSVSGAPGQRVTISCSGSSSNIGYNYVYWYQQLPGTAPKLLIYENNKRPSGVPDRFSGSKSGTSASLAITGLQAEDEADYYCSSWDSHSNSYVFGGGTKLTVLG
notes: also called recombinant monoclonal antibody AbD33473; HuCAL antibody AbD33473
binding result [1]: no binding | binding result [2]: binds | binding result (human Ambra-1): binds

B2: recombinant human HuCAL antibody fragment for Ambra-1 Abd33473.1 (Fab)
heavy: EVQLVQSGAEVKKPGESLKISCKGSGYSFSSYWIHWVRQMPGKGLEWMGTIFPSRSYTTYSPSFQGQVTISADKSISTAYLQWSSLKASDTAMYYCARDTPSTALKSPFDYWGQGTLVTVSSASTKGPSVFPLAPSSKSTSGGTAALGCLVKDYFPEPVTVSWNSGALTSGVHTFPAVLQSSGLYSLSSVVTVPSSSLGTQTYICNVNHKPSNTKVDKKVEPKSRTPEMPVLENRAAQGDITAPGGARRLTGDQTAALRDSLSDKPAKNIILLIGDGMGDSEITAARNYAEGAGGFFKGIDALPLTGQYTHYALNKKTGKPDYVTDSAASATAWSTGVKTYNGALGVDIHEKDHPTILEMAKAAGLATGNVSTAELQDATPAALVAHVTSRKCYGPSATSEKCPGNALEKGGKGSITEQLLNARADVTLGGGAKTFAETATAGEWQGKTLREQAQARGYQLVSDAASLNSVTEANQQKPLLGLFADGNMPVRWLGPKATYHGNIDKPAVTCTPNPQRNDSVPTLAQMTDKAIELLSKNEKGFFLQVEGASIDKQDHAANPCGQIGETVDLDEAVQRALEFAKKEGNTLVIVTADHAHASQIVAPDTKAPGLTQALNTKDGAVMVMSYGNSEEDSQEHTGSQLRIAAYGPHAANVVGLTDQTDLFYTMKAALGLKDYKDDDDKHHHHHH
light: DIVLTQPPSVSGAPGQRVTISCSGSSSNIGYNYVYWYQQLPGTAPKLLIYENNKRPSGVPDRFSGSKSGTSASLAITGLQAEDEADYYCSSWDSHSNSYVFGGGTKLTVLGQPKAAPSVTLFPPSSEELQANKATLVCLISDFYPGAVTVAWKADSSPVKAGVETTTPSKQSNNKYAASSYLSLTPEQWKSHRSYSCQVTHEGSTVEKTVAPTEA
notes: also called HuCAL antibody 33473
binding result [3]: no binding

B3: full length chimeric antibody AbD33047 with an IgG1 mouse Fc region (antibody, V domains shown)
VH: QVQLVQSGAEVKKPGASVKVSCKASGYTFNDYYIHWVRQAPGQGLEWMGVISPNSGKTNYAQKFQGRVTMTRDTSISTAYMELSRLRSEDTAVYYCARDLYPDSSAFDIWGQGTLVTVSS
VL: DIELTQPPSVSVSPGQTASITCSGDNLGDKYAHWYQQKPGQAPVLVIYDDNERPSGIPERFSGSNSGNTATLTISGTQAEDEADYYCQSYDSGNRVFGGGTKLTVLG
notes: also called recombinant monoclonal antibody AbD33047; HuCAL antibody AbD33047
binding result [4]: no binding
